From the supplement of paper PMC10065799, “High-throughput profiling of sequence recognition by tyrosine kinases and SH2 domains using bacterial peptide display” (eLife, 2023)

Key:
Grb2 SH2 = Grb2 SH2 (UniProt P62993); assay: SH2 binding enrichment of the phosphorylated peptide, bacterial display (enrichment ratio); higher = better substrate or ligand; peptides without Tyr show the background
c-Src SH2 = assay: as above
SHP2-C SH2 = assay: as above
AncSZ = assay: phosphorylation enrichment, bacterial display (enrichment ratio); higher = better substrate or ligand; peptides without Tyr show the background
Fer (mouse) = assay: as above
c-Src = assay: as above
Fes = Fes (UniProt P07332); assay: as above
MERTK = MERTK (UniProt Q12866); assay: as above
FGFR3 = FGFR3 (UniProt P22607); assay: as above
EPHB2 = EPHB2 (UniProt P29323); assay: as above
Jak2 = Jak2 (UniProt O60674); assay: as above
Hck = Hck (UniProt P08631); assay: as above
EPHB1 = EPHB1 (UniProt P54762); assay: as above
FGFR1 = FGFR1 (UniProt P11362); assay: as above
c-Abl (mouse) = assay: as above
Fyn = Fyn (UniProt P06241); assay: as above
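For SH2 binding enrichment of the phosphorylated peptide, bacterial display in this document: peptide library displayed on the E. coli surface as eCPX fusions, selected cells deep-sequenced, score is each peptide's frequency after selection divided by its frequency in the input.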
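For phosphorylation enrichment, bacterial display in this document: 11-residue human phosphosite peptides and single-mutation variants displayed on the E. coli surface, counted by deep sequencing, each peptide's frequency after selection divided by its frequency in the unselected input library; frequency after pTyr selection over input frequency; kinase dosed for 20-30% of maximal phosphorylation in three min.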

Chain of Fes (P07332 whole entry, looked up): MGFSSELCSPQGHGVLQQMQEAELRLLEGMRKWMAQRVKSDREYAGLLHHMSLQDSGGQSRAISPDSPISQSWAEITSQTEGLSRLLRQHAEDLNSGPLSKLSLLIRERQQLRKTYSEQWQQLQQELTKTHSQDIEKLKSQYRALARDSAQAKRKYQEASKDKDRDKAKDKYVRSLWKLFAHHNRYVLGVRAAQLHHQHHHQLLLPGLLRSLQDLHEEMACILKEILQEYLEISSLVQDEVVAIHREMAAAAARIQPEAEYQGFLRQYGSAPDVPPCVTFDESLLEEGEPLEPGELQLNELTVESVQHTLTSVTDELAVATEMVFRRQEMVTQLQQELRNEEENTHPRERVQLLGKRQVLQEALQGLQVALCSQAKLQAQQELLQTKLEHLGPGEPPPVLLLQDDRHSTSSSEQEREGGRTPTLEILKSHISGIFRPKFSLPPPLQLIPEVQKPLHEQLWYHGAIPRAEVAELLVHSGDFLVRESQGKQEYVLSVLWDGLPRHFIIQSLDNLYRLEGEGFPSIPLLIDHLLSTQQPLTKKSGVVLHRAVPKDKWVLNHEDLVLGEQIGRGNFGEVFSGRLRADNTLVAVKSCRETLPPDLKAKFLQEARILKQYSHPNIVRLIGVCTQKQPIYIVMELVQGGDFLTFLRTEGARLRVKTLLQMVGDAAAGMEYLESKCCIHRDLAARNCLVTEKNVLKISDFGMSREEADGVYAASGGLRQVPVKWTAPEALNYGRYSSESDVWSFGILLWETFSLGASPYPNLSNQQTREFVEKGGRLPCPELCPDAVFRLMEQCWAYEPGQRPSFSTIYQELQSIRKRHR
Chain of MERTK (Q12866 whole entry, looked up): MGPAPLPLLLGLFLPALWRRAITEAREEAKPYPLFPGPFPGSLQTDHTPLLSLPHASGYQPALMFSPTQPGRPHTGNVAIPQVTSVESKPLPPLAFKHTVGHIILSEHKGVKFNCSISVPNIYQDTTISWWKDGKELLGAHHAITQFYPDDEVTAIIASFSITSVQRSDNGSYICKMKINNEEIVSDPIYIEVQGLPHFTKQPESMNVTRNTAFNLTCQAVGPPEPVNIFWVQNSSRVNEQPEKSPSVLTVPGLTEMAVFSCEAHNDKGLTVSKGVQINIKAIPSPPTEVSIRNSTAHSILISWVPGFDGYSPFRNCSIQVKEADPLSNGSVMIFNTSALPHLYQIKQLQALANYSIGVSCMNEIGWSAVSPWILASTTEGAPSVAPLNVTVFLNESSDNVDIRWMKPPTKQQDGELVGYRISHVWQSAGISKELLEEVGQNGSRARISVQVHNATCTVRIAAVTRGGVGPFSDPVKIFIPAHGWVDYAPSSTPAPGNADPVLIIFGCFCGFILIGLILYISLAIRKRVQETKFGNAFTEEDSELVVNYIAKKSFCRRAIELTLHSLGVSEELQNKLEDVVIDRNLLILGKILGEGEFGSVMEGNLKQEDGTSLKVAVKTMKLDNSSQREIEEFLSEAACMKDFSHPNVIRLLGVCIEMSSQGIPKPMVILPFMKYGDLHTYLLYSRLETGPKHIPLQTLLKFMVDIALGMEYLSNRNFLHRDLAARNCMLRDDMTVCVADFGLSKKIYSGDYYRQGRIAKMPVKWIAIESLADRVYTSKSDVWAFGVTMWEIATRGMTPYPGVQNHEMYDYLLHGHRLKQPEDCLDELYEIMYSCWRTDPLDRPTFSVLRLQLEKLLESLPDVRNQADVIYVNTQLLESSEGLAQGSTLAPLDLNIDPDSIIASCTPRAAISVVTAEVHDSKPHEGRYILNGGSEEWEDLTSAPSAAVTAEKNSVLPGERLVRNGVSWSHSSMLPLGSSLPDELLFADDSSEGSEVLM
Chain of FGFR3 (P22607 whole entry, looked up): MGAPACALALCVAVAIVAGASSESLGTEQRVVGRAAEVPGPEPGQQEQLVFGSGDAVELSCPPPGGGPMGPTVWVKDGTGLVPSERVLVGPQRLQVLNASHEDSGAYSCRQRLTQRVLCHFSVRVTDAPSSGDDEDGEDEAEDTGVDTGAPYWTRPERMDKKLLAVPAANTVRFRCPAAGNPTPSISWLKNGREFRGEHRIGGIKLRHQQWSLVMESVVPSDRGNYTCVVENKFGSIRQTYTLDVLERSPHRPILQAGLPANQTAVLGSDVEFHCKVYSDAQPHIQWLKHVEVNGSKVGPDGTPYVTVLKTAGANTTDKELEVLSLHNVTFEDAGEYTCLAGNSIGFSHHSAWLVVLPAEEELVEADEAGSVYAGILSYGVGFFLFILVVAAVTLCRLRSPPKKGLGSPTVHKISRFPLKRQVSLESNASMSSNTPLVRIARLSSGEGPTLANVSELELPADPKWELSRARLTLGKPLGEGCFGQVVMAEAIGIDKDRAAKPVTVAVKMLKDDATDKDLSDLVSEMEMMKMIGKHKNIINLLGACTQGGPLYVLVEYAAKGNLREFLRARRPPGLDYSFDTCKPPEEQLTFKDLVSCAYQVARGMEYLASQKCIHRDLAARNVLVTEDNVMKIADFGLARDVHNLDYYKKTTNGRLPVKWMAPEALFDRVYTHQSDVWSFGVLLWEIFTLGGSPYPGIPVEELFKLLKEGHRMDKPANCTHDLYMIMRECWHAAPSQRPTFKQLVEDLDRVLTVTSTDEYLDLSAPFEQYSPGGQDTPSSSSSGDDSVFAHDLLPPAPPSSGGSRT
Chain of Fyn (P06241 whole entry, looked up, the tested form may be a part): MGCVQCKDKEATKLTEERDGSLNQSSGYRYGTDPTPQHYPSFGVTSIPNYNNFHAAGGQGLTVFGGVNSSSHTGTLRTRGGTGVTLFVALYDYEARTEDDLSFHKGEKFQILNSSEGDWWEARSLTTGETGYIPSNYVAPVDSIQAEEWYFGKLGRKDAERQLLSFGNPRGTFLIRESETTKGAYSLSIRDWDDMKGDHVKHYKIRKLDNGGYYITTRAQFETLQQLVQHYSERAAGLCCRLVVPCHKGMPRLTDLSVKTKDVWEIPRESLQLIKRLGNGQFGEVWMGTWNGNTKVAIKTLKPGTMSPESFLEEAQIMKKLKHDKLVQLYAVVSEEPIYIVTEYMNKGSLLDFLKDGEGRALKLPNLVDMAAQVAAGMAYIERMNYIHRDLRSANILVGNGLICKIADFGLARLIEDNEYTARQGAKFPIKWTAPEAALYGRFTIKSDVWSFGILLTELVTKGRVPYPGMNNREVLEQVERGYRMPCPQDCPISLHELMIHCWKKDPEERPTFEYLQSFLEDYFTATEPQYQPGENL
Chain of Jak2 (O60674 whole entry, looked up): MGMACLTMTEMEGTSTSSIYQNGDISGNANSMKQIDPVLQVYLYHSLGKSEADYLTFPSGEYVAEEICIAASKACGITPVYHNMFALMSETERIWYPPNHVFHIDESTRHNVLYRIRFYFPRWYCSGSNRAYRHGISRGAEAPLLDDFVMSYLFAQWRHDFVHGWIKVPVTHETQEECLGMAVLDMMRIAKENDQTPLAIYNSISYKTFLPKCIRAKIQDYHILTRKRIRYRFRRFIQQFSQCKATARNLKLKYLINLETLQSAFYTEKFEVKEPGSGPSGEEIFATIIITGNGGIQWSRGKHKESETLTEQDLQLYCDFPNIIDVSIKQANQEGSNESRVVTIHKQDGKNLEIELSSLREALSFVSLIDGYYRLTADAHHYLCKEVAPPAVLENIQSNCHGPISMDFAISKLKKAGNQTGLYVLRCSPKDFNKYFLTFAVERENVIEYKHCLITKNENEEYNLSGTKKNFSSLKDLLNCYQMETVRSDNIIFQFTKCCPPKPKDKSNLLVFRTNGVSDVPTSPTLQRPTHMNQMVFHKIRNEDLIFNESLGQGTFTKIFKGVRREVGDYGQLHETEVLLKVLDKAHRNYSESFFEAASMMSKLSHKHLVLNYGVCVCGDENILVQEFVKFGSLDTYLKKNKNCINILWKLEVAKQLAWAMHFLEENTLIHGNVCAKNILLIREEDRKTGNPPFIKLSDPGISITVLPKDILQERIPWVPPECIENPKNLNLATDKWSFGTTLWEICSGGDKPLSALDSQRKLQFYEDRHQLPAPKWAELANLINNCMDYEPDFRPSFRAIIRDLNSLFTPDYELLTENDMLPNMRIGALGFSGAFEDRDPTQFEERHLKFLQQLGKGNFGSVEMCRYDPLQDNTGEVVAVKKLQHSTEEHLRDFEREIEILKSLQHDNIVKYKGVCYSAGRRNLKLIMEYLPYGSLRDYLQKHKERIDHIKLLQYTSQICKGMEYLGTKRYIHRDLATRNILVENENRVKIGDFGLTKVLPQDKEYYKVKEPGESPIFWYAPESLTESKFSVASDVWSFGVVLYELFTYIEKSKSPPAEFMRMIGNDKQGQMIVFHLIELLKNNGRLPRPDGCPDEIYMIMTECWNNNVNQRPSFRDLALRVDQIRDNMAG
Chain of Hck (P08631 whole entry, looked up): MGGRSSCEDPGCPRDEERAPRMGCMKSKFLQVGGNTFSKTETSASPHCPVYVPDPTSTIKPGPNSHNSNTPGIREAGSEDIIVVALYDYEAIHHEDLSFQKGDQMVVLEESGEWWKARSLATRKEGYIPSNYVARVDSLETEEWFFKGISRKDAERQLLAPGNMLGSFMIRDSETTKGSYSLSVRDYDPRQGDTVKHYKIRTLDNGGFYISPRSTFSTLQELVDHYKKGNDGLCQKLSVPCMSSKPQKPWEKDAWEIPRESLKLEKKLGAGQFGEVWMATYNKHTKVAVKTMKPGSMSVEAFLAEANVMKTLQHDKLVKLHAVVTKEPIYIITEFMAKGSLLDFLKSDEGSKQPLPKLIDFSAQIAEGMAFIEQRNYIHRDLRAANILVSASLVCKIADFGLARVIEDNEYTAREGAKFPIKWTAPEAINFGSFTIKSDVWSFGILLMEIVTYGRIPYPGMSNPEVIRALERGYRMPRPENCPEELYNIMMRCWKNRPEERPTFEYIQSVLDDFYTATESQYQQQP

Row | Sequence | SH2 binding enrichment (Grb2 SH2) | SH2 binding enrichment (c-Src SH2) | SH2 binding enrichment (SHP2-C SH2) | phosphorylation enrichment (AncSZ) | phosphorylation enrichment (Fer (mouse)) | phosphorylation enrichment (c-Src) | phosphorylation enrichment (Fes) | phosphorylation enrichment (MERTK) | phosphorylation enrichment (FGFR3) | phosphorylation enrichment (EPHB2) | phosphorylation enrichment (Jak2) | phosphorylation enrichment (Hck) | phosphorylation enrichment (EPHB1) | phosphorylation enrichment (FGFR1) | phosphorylation enrichment (c-Abl (mouse)) | phosphorylation enrichment (Fyn)
1 | DKTGEYPVPLI [ACADM_Y73] | 0.666 | 0.399 | 0.697 | 0.809 | 0.442 | 0.436 | 0.957 | 0.392 | 0.687 | 0.575 | 0.856 | 0.49 | 0.528 | 0.468 | 0.55 | 0.407
2 | DLAGRYYALKS [CKB_Y173] | 0.824 | 1.47 | 0.722 | 0.572 | 0.597 | 0.571 | 0.878 | 1.65 | 0.85 | 0.419 | 1.58 | 0.726 | 0.406 | 1.04 | 0.577 | 0.538
3 | DLAGRYYALRS [CKB_Y173_K177R] | 0.775 | 1.87 | 0.9 | 0.729 | 0.477 | 0.487 | 0.649 | 2.19 | 0.811 | 0.439 | 1.65 | 0.681 | 0.352 | 0.963 | 0.544 | 0.484
4 | DLDPNYVVSSR [CKM_Y125_L127V] | 0.8 | 0.488 | 0.787 | 1.17 | 0.494 | 0.46 | 0.943 | 0.453 | 0.69 | 0.546 | 0.843 | 0.573 | 0.561 | 0.539 | 0.713 | 0.45
5 | DLSEVYKPRRK [CCDC93_Y176] | 0.414 | 0.315 | 0.481 | 0.761 | 0.521 | 0.573 | 0.623 | 0.634 | 0.575 | 0.454 | 0.574 | 0.407 | 0.513 | 0.352 | 0.59 | 0.579
6 | DPADRYLIEQC [CDKL5_Y286_T288I] | 0.88 | 0.544 | 0.67 | 1.19 | 0.511 | 0.518 | 1.32 | 0.467 | 0.777 | 0.682 | 1.06 | 0.556 | 0.626 | 0.587 | 0.903 | 0.51
7 | DPFHVYIKNHV [KCNE3_Y95_R99H_YF] | 0.978 | 0.643 | 0.839 | 1.22 | 0.585 | 0.403 | 1.32 | 0.354 | 0.918 | 0.735 | 1.2 | 0.519 | 0.671 | 0.469 | 0.915 | 0.382
8 | DTDSSYCIPIA [GAB1_Y373_T377I] | 0.88 | 0.551 | 0.441 | 2.21 | 0.483 | 0.435 | 1.05 | 1.16 | 0.706 | 0.721 | 0.925 | 0.413 | 0.829 | 0.586 | 0.82 | 0.467
9 | DTKDDYNALSV [IL17RB_Y457] | 0.869 | 0.498 | 0.668 | 1.08 | 0.483 | 0.443 | 1.07 | 0.426 | 0.718 | 0.625 | 0.916 | 0.546 | 0.495 | 0.544 | 0.679 | 0.599

Second part, led by results:

Row | SH2 binding enrichment (Grb2 SH2) | SH2 binding enrichment (c-Src SH2) | SH2 binding enrichment (SHP2-C SH2) | Sequence | phosphorylation enrichment (AncSZ) | phosphorylation enrichment (Fer (mouse)) | phosphorylation enrichment (c-Src) | phosphorylation enrichment (Fes) | phosphorylation enrichment (MERTK) | phosphorylation enrichment (FGFR3) | phosphorylation enrichment (EPHB2) | phosphorylation enrichment (Jak2) | phosphorylation enrichment (Hck) | phosphorylation enrichment (EPHB1) | phosphorylation enrichment (FGFR1) | phosphorylation enrichment (c-Abl (mouse)) | phosphorylation enrichment (Fyn)
10 | 0.67 | 2.69 | 0.496 | DLDFTYIYPNI [PTEN_Y27_L25F] | 4.17 | 0.501 | 1.47 | 1.23 | 1.22 | 3.11 | 0.945 | 2.36 | 1.37 | 0.83 | 4.18 | 0.953 | 2.5
11 | 1.29 | 3.33 | 0.962 | DLDLTYIYPNI [PTEN_Y27] | 3.91 | 0.424 | 1.4 | 0.871 | 2.41 | 2.61 | 0.961 | 1.57 | 1.37 | 1.71 | 3.8 | 0.612 | 2.84
12 | 0.844 | 0.517 | 0.716 | DQGEQYKKELE [LMNA_Y259_V256G] | 1.39 | 0.642 | 0.522 | 1.39 | 0.467 | 0.682 | 0.676 | 1.31 | 0.535 | 0.801 | 0.464 | 1.15 | 0.488
13 | 0.876 | 0.545 | 0.582 | DRLASYLDKLR [KRT12_Y139_V143L] | 0.921 | 0.479 | 0.498 | 0.894 | 0.45 | 0.597 | 0.567 | 0.713 | 0.472 | 0.494 | 0.458 | 0.868 | 0.459
14 | 0.846 | 0.465 | 0.614 | DRQASYLDKVR [KRT16_Y131_L128Q] | 0.536 | 0.324 | 0.385 | 0.662 | 0.388 | 0.424 | 0.419 | 0.609 | 0.399 | 0.39 | 0.39 | 0.494 | 0.418
15 | 0.944 | 0.487 | 0.548 | DTFDPYLDIAL [USP36_Y268_V271I_YF] | 1.25 | 1.08 | 0.832 | 1.52 | 0.527 | 1 | 0.589 | 1.39 | 0.577 | 0.73 | 0.783 | 0.727 | 0.692
16 | 0.874 | 0.44 | 0.578 | DTMQTYNGNDE [TSPAN7_Y131_A127T] | 0.976 | 0.557 | 0.502 | 1.17 | 0.382 | 0.817 | 0.632 | 0.976 | 0.642 | 0.589 | 0.695 | 0.758 | 0.491
